# Experimental data taken from the DeepSol protein solubility set.
# Assay: soluble on expression in E. coli; label from the status in PepcDB or PDB records
row,Sequence,soluble on expression in E. coli
1,MGSDKIHHHHHHMDNDSTPRGTVCVTGATGYVGGRLVPRLLDHGWRVRALVRTPAKLLCRPWARHPRLDIIRGDLDDACSLVPALEGCDAVFYLVHSMNPHVTGRDTFAKADRAAASNMVRACDEARPGRIIYLSGLVPEGEELSPHLRSRAEVADILARGETPLTVLRAAQILGSGSASFEMVRYLVDRLPVMLTPRWVHSLCQPIAISNVLGYLEGCLDHPETMGQTYDIGGPDILSYRELFDIFAEVAQLRRRTIIPVPVLSPELSAHWINLVTPIPKALATPLIQGLRNRVVCADDRIRDIIPQRLLSCREAIGKALDRVREQSVPTCWTDAGRPDMPEWMTCGDASYAGGDLLECAYAIQVEAPPETVWKPVSAIGGETGWYHGDLLWRLRGMLDKLVGGPGLRRGRRHPTDIGVGDALDFWRVLDVRPGERLLLLAEMKVPGDALLEFRLAPTATGGTELWMLSWFLPRGLAGLAYWWALYPLHKGLFKGMLCGLAAATGAPVSREPWALPPRREFACALPLTDASAPGRRDTTAQ,not soluble
2,MPPMAKNAAVTDVVHLDSDSDSDNGVVGGRESASTIAGAATMAPRETLECRSFWKAGDYFVIPNVVTPTAPAIAELLDNAVDEIQNGATFVKIDKINIVKDNSPALVFQDDGGGMDPAGLRKCMSLGYSSKKSNTTIGQYGNGFKTSTMRLGADAIVFSRSTRGGTSTQSVGILSYTFLRKTGQDDVTVPMIRYVMQIDIDISKERPQPIIYGSPEDWAANLEILLKWSPFSTEDELLQQSVLLIFLFPSSTHQFEDVGTHGTKVIIYNLWLNDEGIYELSFDDDEEVTHTFPQLIYTRRDILPEDIRLRDESVNDGKRLHHKILELRSHISYHLRYSLRAYASMLYLKKFKNFKIIIRGIPVEQFNIADGFRFPEIIKYKPHTATTEQASTEIKIGFVKEAPKLAICGFNVYHKNRLIRDTGNNLDGKSAGEIRQENLQLFMRYIYKKRKIRISISYLCGDLNQILFFNRCEEYIKKENETEQTVKSLEKELEEFKSKCAHLALLVDAKKKEMQQA,soluble
3,MKIVVAKNIGFCFGVERAIRTVEELLDEGKKVVTDGEIVHNKQVMEQLTKKGLKVSSEMTDGEVFVVRAHGIPKDRLEELKKIFPEVVDLTCPIVSQLFKTAQRYAKERKVIVFGKEDHPEMVALRGYAPAIVTKVPFKLEEKKVVFLSQTTSSLEEYKEFVAAMIRMNEFEEAVFLNTICPVTVNREREVEELSKICDLSIVVGGKHSSNTGKLFRIASKHSKTIWIESPDELPADVVKYGTVCVFSGTSTPNSLIENVVRKLKEMEGKRDGTI,soluble
4,MHCAENCIFCKIIAGDIPSAKVYEDEHVLAFLDISQVTKGHTLVIPKTHIENVYEFTDELAKQYFHAVPKIARAIRDEFEPIGLNTLNNNGEKAGQSVFHYHMHIIPRYGKGDGFGAVWKTHADDYKPEDLQNISSSIAKRLASS,soluble
5,MFHLVDFQVTIAEILIIIMRTFRIAIWNLDVIISSIVRQLFKPLTKKNYSELDDEEPMELDYP,soluble
6,KTFEPTNPFFRVVLRPSYLYRGCIMYLPSGFAEKYLSGISGFIKVQLAEKQWPVRCLYKAGRAKFSQGWYEFTLENNLGEGDVCVFELLRTRDFVLKVTAFRVNEYV,not soluble
7,MGSDKIHHHHHHMNMLVRFFIMVSLLKQQLNKQLATEYLSVERLMAPVVRHYRVLPHDMGFRDHLPNYRYLSFIELNITNWLMACCHQKGIKNLGWIIAMQEMVYLKQIKFLDKMTVNSRVVGWDKKYVYFEHQFFVKNQLMAMGMTKFVLTNKQGKCATEVLDMTGEQLNEVIDTWSQHQVAIKSAKSTESTKAA,not soluble
8,GMWWYSSIKYSADKVLLDTTRMYYYFINRTPRMEIGRMIAVLSGSFEFSKQYNKEIQERETDDYEVPRLMKQIAGVNDKGKEQPLSQPYALKSRVLLHAYLSRLPLESQNDALEEDQSYIITRILRFVEEMVNCSQNLMNYSQHTKISIETFDNLLKLQPMFVQALWQKNSPLLQLPHITDYNLQHLRKKRVFSCHDLAVMDAETRRSVLRSLSNEEYRDVMVVLSMMPRLQIETKTVVEGEDDKHELTAGCVVTLKVTMRRSRLIDPQEAGLADQYKKYAEDGGDDELEASEAPEEAAATVEEEEVKKRKPWEKNKPKQKKKKAQGQGQKKFVKKNAPASPDTEKALKEE,not soluble
9,MGSDKIHHHHHHMSPDVDIKALRCFLALAQELSFGRAAERMNLTQPSLSAQIRKLEDQVGHRLFERTTRAVHLSPTGKALIEQARTFVSQADAFAAHLSAWRERPDRRMVLGAPIYTFELPEHGALLSAIARELPDMSLRVDNGFANSLVEGLIKGSVDMAMVVAAAVPHDRYLADMAGEGAGELEMPDGLQRITLSDEQIGLAIPEEHPLASYDIVPPEALSGSVIAMLAPLHGRSLYRPISVWLSAAGATGFLPPEAHAFALERYCREYRIPAISIAQFRPRETGNVVYRPAGGLNVRTELAVLRSTRKQRSSIEERLWDLASSLGR,not soluble
10,MSLRNKIKSWLLNASEYDFTDIKEGIRLHLNESPFEPPQFIIDAVKMYLSKGNRYQHPDLLEKYRELAAEYSKVEPENIYPSVGADGSIRAIFYNLVEPGDTILTNYPSYSMYSVYSSVRGTKVIKVNLKEDNEWWKENTDDLLAQAEKVELVIIDDPNNPTGSPMLNGKKELIGQLAENTKGFVVIDEAYYEFGGYTVSPYIYDYPNVLVVRTLSKAFSLASYRLGYTIANEEIVKALMKSSTPFDIPLPSLIAGITALENPSYIKDVVNIVNRNREILYQGLKNLNLKVYKSITNFLLIKDNRNLQEMLMRHGIAIRKLYDNFYRITIGTEDQCKMVIDKLGEELENSNSEGHHHHHH,soluble
11,MLVLFEVAAGYAVFKLSNEKKLKNVDNIWEEFSTAEKAQENLQLVSFKKFKTTAGAVEATSEITEGKLSKTLKKLLKSSVDETEKLAVGDAKLGNLIKEKLSLNCVHDSSINELMRGVRAHIEDLLAEHKEEMNAMNLAVAHSLARYKVKFNPEKIDTMIVQAVSLLDDLDKELNNYVMRVREWYGWHFPELGKTIQDHQAYAKIIKAIGMRQNCINTDLSSILPEELEEKVKEDAEISMGTDISDIDLIHIKGLCDQVIELSAYRAQLFDYLKNRMTALAPNLTVLLGELVGARLISHAGSLVSLAKAPASTIQILGAEKALFRALKTKKDTPKYGLIYHAQLITQAPPKVKGKMARKLAAKCSLATRIDALSDESATNEIGIECRAALENVLRTESERGPSKNKSFGSHRHDKYEFKSETYEYDASADTPASRKHKRFDDNEESTNAIKKMKIEEVKEEDEAEPEKKKKKKEKKAKKADTDSDEE,not soluble
12,MSLSILVTGATGTIGSLVTQGLASAGADVKAMVRQPGKRDFPAGVTEVVADLTDVSSMRVALSSVRTLFLLNAVTPDEVTQALIALNLAQEAGIERIVYLSVIHADTFTNVPHFTGKYTVERMIESLDIPATILRPAYFMQNDLMVQQTIQSYSVYPMPIGSAGVSMIDARDIADVAVAELLRRDEASSALDLVTLELVGPQALTGASVAQTWSSALDREIAYGGDDVAAFEGQLASYGPGWLAYDMRLMMAGIQKFGMQAAEGAVERLEAIIGHPLRSYEGFVREATAGEGHHHHHH,soluble
13,MAYLYELEGIYAQLQSMDLDEETFQDTLDSIDFQSDLENNIEYFVKMLKNVQADAEKYKAEKEAFYKKQKQAEAKAEKYKETIRLAMELSQKKKVDAGMFKVSLRRSKKVEILDETKIPLDYMQEKIEYKPMKAEISKALKSGIDISGVELIETESLQVK,not soluble
14,MRGSHHHHHHGSMAVPPTYADLGKSARDVFTKGYGFGLIKLDLKTKSENGLEFTSSGSANTETTKVNGSLETKYRWTEYGLTFTEKWNTDNTLGTEITVEDQLARGLKLTFDSSFSPNTGKKNAKIKTGYKREHINLGCDVDFDIAGPSIRGALVLGYEGWLAGYQMNFETSKSRVTQSNFAVGYKTDEFQLHTNVNDGTEFGGSIYQKVNKKLETAVNLAWTAGNSNTRFGIAAKYQVDPDACFSAKVNNSSLIGLGYTQTLKPGIKLTLSALLDGKNVNAGGHKLGLGLEFQA,soluble
15,MSLITVVIIDDDPFVTKSLQTILESTKEIRVLGIGHCAKDALVLYETHRPDVLLTDIRMPKQTGIDAAKEILAKFPKAILLLLTTFKDEEYIREAFSIGVKGYLIKQNLQAIIPSVKSAYNGQAVFGNEIIETFTQMMKNKPTIDSHAYASFSERELAIIKEVAAGKNNKEIADALYLSDGTVRNYISQLLEKLDLRDRTQLAIYFYQHLQEGHHHHHH,not soluble
16,MSQPESPEQRRTAILATAERILRSGSPLTLGKVAQEVGISRTALYRYVSGIDEIIETLATKDFPHWLTSLRSAMAAAPTPKQRALCWAIESIKLGRETDHAWLATLSSLNLSENCRNAIASEHSKIDQLLRVELAQLGTPHIELTVATVRAVVMTAIQTPSSTEADDYFTATISAIIDASC,not soluble
17,MGSDKIHHHHHHMNAQEERSRDWVSIRRPFAKAGLETMTARYIQQSFKPHAHDEYVIGIIEGGVHSVWCRGIHHNMPSGTVVTMHPGDVHYGNAAIAEGWKQRMIYISENEIGKFISDIAGGDKFLLPDFKQTFHDRPDLAHSFAQFHEVLHSSPLALARDVALDSIMRVTIGALSPDFVKAKDAKQPSGRIADAVEFLHNRIEDDVTLDELCDVAGLRRRQTIEAFKRCTGLPPHAYHVIQKVKAVKTMLRDGFSATEAAARAGFADQSHMTRHFVGVVGMTPGAYALDCQKKY,not soluble
18,MGSDKIHHHHHHMNKIAVIGKVFVDIKGTSFAPLHKDAKNVGDITFSNGGTGRNVAQNLAVLGNDVRFISTVTNDQIGVGVLEELKSYGANVDHVEMLEDHGMGMWLAVMDNEGDLQTSISKQPDAKLLEEAILRQSVYALDGVDAVAIDLDLSVTVLERLIHICRKMELPLYGVCGHLSVIERNRHLLQGFTGFICSREEAEILSDLSIVTVEDAIHVANELAKKGAPFTVVTMSELGAVYVDRRTATSGHVGTKKVKVVDSTGAGDSFFSAVLSELTESKRAEEALQLGMKVAAQVIASTENGLIPEMLETLR,not soluble
19,MGHHHHHHSHMKPVKHLLTTSNKSANVPALTTKKGLHNLPLSPELKEKHNAKLIHDKIEPMVLRSPPTGESILRYALPIPSSKTKNLLPEDEMIGKIIKHLKMVVSTLEETYGHCDQNGEEPFVKHEHEELSLSVGDDMNSFLTYCSQFAAQLEEALKEEQNILESLFKWFQWQVNQMEEISKDQTLLQAEPPKPDKTVILNIAEIVRLVQRFEELKNRLKQRSKSSVKVMLSKTMDKENRPEAVKSCEALAQKIEEFLEAHSTDEFKDVSATEPQL,soluble
20,MARGCDLCFPGRKAVVFVTGLCDDSCFYCPVSRAKLGRDVFYVNEVPVASVEEAVAEVLRTGASGASLTGGDPLVALHRTLDVARALKSELGRGFHIHLYTSGRRMTPEVARALWEAGVDEVRIHPTERSLLSRVGMVKRYTGMSVGVEMPIAPGLEELAIEAVKTVEAVGGDFVNLNEMEIVEPNARALLARGYTESGERPFTVRGALEAVLRVLEWAAENSSVPVHFCPASFKDSIQTGNRLRSSAARDAYWYEEPTPHGTLTWGEVRGGSPPPGLGEERGGRIMLPPRADLLETVVRMYGGEAYIVEAHPTPSRTPIVSERRIA,not soluble
